# Results: patent publication US20160264681A1 (ACCELERON PHARMA, published 2016)
# T1: Activin A (UniProt P08476 311-426)
# T1 sequence (looked up): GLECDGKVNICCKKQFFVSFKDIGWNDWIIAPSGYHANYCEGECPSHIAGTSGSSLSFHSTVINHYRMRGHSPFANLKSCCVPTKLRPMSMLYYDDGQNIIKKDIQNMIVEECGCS
# T2: GDF11 (UniProt O95390 299-407)
# T2 sequence (looked up): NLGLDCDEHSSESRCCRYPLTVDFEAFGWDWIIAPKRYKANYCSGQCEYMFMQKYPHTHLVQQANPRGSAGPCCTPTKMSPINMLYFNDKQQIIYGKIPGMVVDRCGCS
# B1: ActRIIb-hFc (R64, 20-132) (Fc fusion)
# chain: GRGEAETRECIYYNANWELERTNQSGLERCEGEQDKRLHCYASWRNSSGTIELVKKGCWLDDFNCYDRQECVATEENPQVYFCCCEGNFCNERFTHLPEAGGPEVTYEPPPTAGGGTHTCPPCPAPELLGGPSVFLFPPKPKDTLMISRTPEVTCVVVDVSHEDPEVKFNWYVDGVEVHNAKTKPREEQYNSTYRVVSVLTVLHQDWLNGKEYKCKVSNKALPVPIEKTISKAKGQPREPQVYTLPPSREEMTKNQVSLTCLVKGFYPSDIAVEWESNGQPENNYKTTPPVLDSDGSFFLYSKLTVDKSRWQQGNVFSCSVMHEALHNHYTQKSLSLSPGK
# B2: ActRIIb-hFc (R64, 20-128) (Fc fusion)
# chain: GRGEAETRECIYYNANWELERTNQSGLERCEGEQDKRLHCYASWRNSSGTIELVKKGCWLDDFNCYDRQECVATEENPQVYFCCCEGNFCNERFTHLPEAGGPEVTYEPGGGTHTCPPCPAPELLGGPSVFLFPPKPKDTLMISRTPEVTCVVVDVSHEDPEVKFNWYVDGVEVHNAKTKPREEQYNSTYRVVSVLTVLHQDWLNGKEYKCKVSNKALPVPIEKTISKAKGQPREPQVYTLPPSREEMTKNQVSLTCLVKGFYPSDIAVEWESNGQPENNYKTTPPVLDSDGSFFLYSKLTVDKSRWQQGNVFSCSVMHEALHNHYTQKSLSLSPGK
# B3: ActRIIb-hFc (R64, 20-131) (Fc fusion)
# chain: GRGEAETRECIYYNANWELERTNQSGLERCEGEQDKRLHCYASWRNSSGTIELVKKGCWLDDFNCYDRQECVATEENPQVYFCCCEGNFCNERFTHLPEAGGPEVTYEPPPTGGGTHTCPPCPAPELLGGPSVFLFPPKPKDTLMISRTPEVTCVVVDVSHEDPEVKFNWYVDGVEVHNAKTKPREEQYNSTYRVVSVLTVLHQDWLNGKEYKCKVSNKALPVPIEKTISKAKGQPREPQVYTLPPSREEMTKNQVSLTCLVKGFYPSDIAVEWESNGQPENNYKTTPPVLDSDGSFFLYSKLTVDKSRWQQGNVFSCSVMHEALHNHYTQKSLSLSPGK
# B4: ActRIIB(20-134)-hFc (Fc fusion)
# chain: GRGEAETRECIYYNANWELERTNQSGLERCEGEQDKRLHCYASWRNSSGTIELVKKGCWLDDFNCYDRQECVATEENPQVYFCCCEGNFCNERFTHLPEAGGPEVTYEPPPTAPTGGGTHTCPPCPAPELLGGPSVFLFPPKPKDTLMISRTPEVTCVVVDVSHEDPEVKFNWYVDGVEVHNAKTKPREEQYNSTYRVVSVLTVLHQDWLNGKEYKCKVSNKALPVPIEKTISKAKGQPREPQVYTLPPSREEMTKNQVSLTCLVKGFYPSDIAVEWESNGQPENNYKTTPPVLDSDGSFFLYSKLTVDKSRWQQGNVFSCSVMHEALHNHYTQKSLSLSPGK
# B5: ActRIIb-hFc (R64, 23-131) (Fc fusion)
# chain: EAETRECIYYNANWELERTNQSGLERCEGEQDKRLHCYASWRNSSGTIELVKKGCWLDDFNCYDRQECVATEENPQVYFCCCEGNFCNERFTHLPEAGGPEVTYEPPPTGGGTHTCPPCPAPELLGGPSVFLFPPKPKDTLMISRTPEVTCVVVDVSHEDPEVKFNWYVDGVEVHNAKTKPREEQYNSTYRVVSVLTVLHQDWLNGKEYKCKVSNKALPVPIEKTISKAKGQPREPQVYTLPPSREEMTKNQVSLTCLVKGFYPSDIAVEWESNGQPENNYKTTPPVLDSDGSFFLYSKLTVDKSRWQQGNVFSCSVMHEALHNHYTQKSLSLSPGK
# B6: ActRIIb-hFc (R64, 22-131) (Fc fusion)
# chain: GEAETRECIYYNANWELERTNQSGLERCEGEQDKRLHCYASWRNSSGTIELVKKGCWLDDFNCYDRQECVATEENPQVYFCCCEGNFCNERFTHLPEAGGPEVTYEPPPTGGGTHTCPPCPAPELLGGPSVFLFPPKPKDTLMISRTPEVTCVVVDVSHEDPEVKFNWYVDGVEVHNAKTKPREEQYNSTYRVVSVLTVLHQDWLNGKEYKCKVSNKALPVPIEKTISKAKGQPREPQVYTLPPSREEMTKNQVSLTCLVKGFYPSDIAVEWESNGQPENNYKTTPPVLDSDGSFFLYSKLTVDKSRWQQGNVFSCSVMHEALHNHYTQKSLSLSPGK
# B7: ActRIIb-hFc (R64, 24-131) (Fc fusion)
# chain: AETRECIYYNANWELERTNQSGLERCEGEQDKRLHCYASWRNSSGTIELVKKGCWLDDFNCYDRQECVATEENPQVYFCCCEGNFCNERFTHLPEAGGPEVTYEPPPTGGGTHTCPPCPAPELLGGPSVFLFPPKPKDTLMISRTPEVTCVVVDVSHEDPEVKFNWYVDGVEVHNAKTKPREEQYNSTYRVVSVLTVLHQDWLNGKEYKCKVSNKALPVPIEKTISKAKGQPREPQVYTLPPSREEMTKNQVSLTCLVKGFYPSDIAVEWESNGQPENNYKTTPPVLDSDGSFFLYSKLTVDKSRWQQGNVFSCSVMHEALHNHYTQKSLSLSPGK
# B8: ActRIIb-hFc (R64, 21-131) (Fc fusion)
# chain: RGEAETRECIYYNANWELERTNQSGLERCEGEQDKRLHCYASWRNSSGTIELVKKGCWLDDFNCYDRQECVATEENPQVYFCCCEGNFCNERFTHLPEAGGPEVTYEPPPTGGGTHTCPPCPAPELLGGPSVFLFPPKPKDTLMISRTPEVTCVVVDVSHEDPEVKFNWYVDGVEVHNAKTKPREEQYNSTYRVVSVLTVLHQDWLNGKEYKCKVSNKALPVPIEKTISKAKGQPREPQVYTLPPSREEMTKNQVSLTCLVKGFYPSDIAVEWESNGQPENNYKTTPPVLDSDGSFFLYSKLTVDKSRWQQGNVFSCSVMHEALHNHYTQKSLSLSPGK
# Biological target: T1, Activin A
# Test: cell-based or functional assay
row,Binder,"IC50 (ng/mL), reporter gene assay, conditioned media [ng/mL]"
1,B1,32
2,B2,158
3,B3,44
4,B4,2

# Biological target: T2, GDF11
# Test: cell-based or functional assay
row,Binder,"IC50 (ng/mL), reporter gene assay, conditioned media [ng/mL]"
1,B1,87
2,B2,130
3,B3,120
4,B4,45

# Biological target: T1, Activin A
# Test: cell-based or functional assay
# Remark: another data set of the same source
row,Binder,"IC50 (ng/mL), reporter gene assay, conditioned media [ng/mL]"
1,B5,43
2,B3,201
3,B6,100
4,B7,105
5,B8,325

# Biological target: T2, GDF11
# Test: cell-based or functional assay
# Remark: another data set of the same source
row,Binder,"IC50 (ng/mL), reporter gene assay, conditioned media [ng/mL]"
1,B5,60
2,B3,183
3,B6,71
4,B7,69
5,B8,121
